Test results as given in the supplement of paper PMC7877785.
± gives the uncertainty stated by the source.

Assay: self-splicing fitness, log relative to wild type (ln ratio); higher = more splicing; Tetrahymena group I intron in knt gene, E. coli kanamycin selection, DiMSum; sequences stand for … in CUCUCU…GGAGGGAAAAGUUAUCAGGCAUGCACCUGGUAGCUAGUCUUUAAACCAAUAGAUUGCAUCGGUUUAAAAGGCAAGACCGUCAAAUUGCGGGAAAGGGGUCAACAGCCGUUCAGUACCAAGUCUCAGGGGAAACUUUGAGAUGGCCUUGCAAAGGGUAUGGUAAUAAGCUGACGGACAUGGUCCUAACCACGCAGCCAAGUCCUAAGUCAACAGAUCUUCUGUUGAUAUGGAUGCAGUUCACAGACUAAAUGUCGGUCGGGGAAGAUGUAUUCUUCUCAUAAGAUAUAGUCGGACCUCUCCUUAAUGGGAGCUAGCGGAUGAAGUGAUGCAACACUGGAGCCGCUGGGAACUAAUUUGUAUGCGAAAGUAUAUUGAUUAGUUUUGGAGUACUCGUGGUCG
In short: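 Six replicate transformations of E. coli BL21(DE3) with a pET-22b(+) library were grown overnight at 37°C or 30°C. The library randomised all eight P1ex-region intron nucleotides, the intron lying in the knt kanamycin-resistance gene, and plates were LB agar with or without 25 μg/mL kanamycin plus 100 μg/mL carbenicillin, 50 μM IPTG and 0.2% rhamnose. Pooled colonies were amplicon-sequenced on an Illumina HiSeq 2500, and fitness is the DiMSum error-weighted combination of wild-type-normalised replicate fold changes, kanamycin versus none.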

Sequence	self-splicing fitness (ln) (30 °C)	self-splicing fitness (ln) (37 °C)
AAUAAGCAAUAUUACGCAGU	-3.08 ± 0.22	-2.04 ± 0.19
AAUAAGCAAUAUUACGCUGA	-1.81 ± 0.17	-1.63 ± 0.18
AAUAAGCAAUAUUACGGAAC	-4.53 ± 0.34	-2.16 ± 0.23
AAUAAGCAAUAUUACGGACA	-0.911 ± 0.13	0.0108 ± 0.14
AAUAAGCAAUAUUACGGCGA	-0.134 ± 0.079	-0.274 ± 0.1
AAUAAGCAAUAUUACGGGAU	-2.73 ± 0.15	-1.33 ± 0.14
AAUAAGCAAUAUUACGGGCC	-2.8 ± 0.39	-2.21 ± 0.31
AAUAAGCAAUAUUACGGGGA	-3.01 ± 0.21	-1.42 ± 0.16
AAUAAGCAAUAUUACGGGUU	-2.37 ± 0.13	-1.43 ± 0.16
AAUAAGCAAUAUUACGGUCC	-1.47 ± 0.14	-0.63 ± 0.22
AAUAAGCAAUAUUACGUAAG	-2.06 ± 0.072	-0.567 ± 0.084
AAUAAGCAAUAUUACGUAGG	-2.11 ± 0.16	-0.935 ± 0.17
AAUAAGCAAUAUUACGUCAA	-2.29 ± 0.14	-2.06 ± 0.12
AAUAAGCAAUAUUACGUCGG	-1.91 ± 0.14	-1.75 ± 0.18
AAUAAGCAAUAUUACGUUCU	-0.338 ± 0.077	0.0226 ± 0.11
AAUAAGCAAUAUUACGUUGA	-2.96 ± 0.22	-2.62 ± 0.2
AAUCAGCAAUAUUACGAAUG	-0.581 ± 0.069	-0.488 ± 0.12
AAUCAGCAAUAUUACGACCU	0.207 ± 0.09	0.538 ± 0.096
AAUCAGCAAUAUUACGAGGU	-2.3 ± 0.12	-1.36 ± 0.15
AAUCAGCAAUAUUACGCGCA	-0.8 ± 0.081	-0.264 ± 0.12
AAUCAGCAAUAUUACGCGUC	-1.14 ± 0.071	0.513 ± 0.088
AAUCAGCAAUAUUACGCUAA	-0.408 ± 0.089	0.12 ± 0.092
AAUCAGCAAUAUUACGCUUA	-0.484 ± 0.072	0.347 ± 0.098
AAUCAGCAAUAUUACGGCGA	-0.0143 ± 0.073	0.557 ± 0.093
AAUCAGCAAUAUUACGGGCA	-0.515 ± 0.091	-0.146 ± 0.12
AAUCAGCAAUAUUACGGUGA	-0.138 ± 0.076	0.345 ± 0.087

Sequence	self-splicing fitness (ln) (30 °C)	self-splicing fitness (ln) (37 °C)
AAUCAGCAAUAUUACGGUUU	-1.35 ± 0.056	-0.0658 ± 0.064
AAUCAGCAAUAUUACGUCAA	-0.952 ± 0.077	-0.614 ± 0.1
AAUCAGCAAUAUUACGUCUU	0.123 ± 0.06	0.106 ± 0.079
AAUCAGCAAUAUUACGUGAC	-1.81 ± 0.085	-1.72 ± 0.12
AAUCAGCAAUAUUACGUGCG	-0.392 ± 0.058	-0.216 ± 0.08
AAUCAGCAAUAUUACGUGUG	-0.753 ± 0.053	-0.737 ± 0.067
AAUCAGCAAUAUUACGUUAC	-2.78 ± 0.13	-1.08 ± 0.1
AAUCAGCAAUAUUACGUUCA	-1.2 ± 0.091	-0.527 ± 0.11
AAUCAGCAAUAUUACGUUGU	-2.38 ± 0.1	-1.68 ± 0.12
AAUGAGCAAUAUUACGAACU	-1.11 ± 0.14	-0.57 ± 0.16
AAUGAGCAAUAUUACGAAUG	-3.34 ± 0.36	
AAUGAGCAAUAUUACGACCA	-2.14 ± 0.24	-2.22 ± 0.37
AAUGAGCAAUAUUACGAGCA	-3.45 ± 0.32	-2.35 ± 0.29
AAUGAGCAAUAUUACGCACU	-1.07 ± 0.11	0.105 ± 0.15
AAUGAGCAAUAUUACGCGCC	-3.19 ± 0.28	-2.73 ± 0.44
AAUGAGCAAUAUUACGCGGA	-2.88 ± 0.21	-2.13 ± 0.21
AAUGAGCAAUAUUACGCGGU	-2.93 ± 0.17	-3.12 ± 0.32
AAUGAGCAAUAUUACGCUUU	-3.41 ± 0.23	-2.34 ± 0.31
AAUGAGCAAUAUUACGGAUU	-2.38 ± 0.15	-1.04 ± 0.16
AAUGAGCAAUAUUACGGCCG	-2.12 ± 0.15	-1.36 ± 0.2
AAUGAGCAAUAUUACGGCGA	-2.77 ± 0.34	-0.446 ± 0.19
AAUGAGCAAUAUUACGGGGC	-2.82 ± 0.2	-1.93 ± 0.24
AAUGAGCAAUAUUACGGGUG	-3.73 ± 0.33	-2.72 ± 0.22
AAUGAGCAAUAUUACGUAUC	-3.14 ± 0.21	-1.14 ± 0.17
AAUGAGCAAUAUUACGUCCG	-4.29 ± 0.39	-3.13 ± 0.29
AAUGAGCAAUAUUACGUUCU	-2 ± 0.085	-1.21 ± 0.092

Sequence	self-splicing fitness (ln) (30 °C)	self-splicing fitness (ln) (37 °C)
AAUGAGCAAUAUUACGUUUA	-3.81 ± 0.35	-2.21 ± 0.22
AAUGAGCAAUAUUACGUUUU	-3.53 ± 0.16	-2.15 ± 0.17
AAUUAGCAAUAUUACGACCU	0.197 ± 0.19	0.333 ± 0.21
AAUUAGCAAUAUUACGACGA	-0.729 ± 0.12	-0.15 ± 0.2
AAUUAGCAAUAUUACGAGCA	-1.1 ± 0.12	-0.758 ± 0.1
AAUUAGCAAUAUUACGAUAU	-0.45 ± 0.093	0.012 ± 0.12
AAUUAGCAAUAUUACGCAGU	-2.78 ± 0.16	-1.3 ± 0.2
AAUUAGCAAUAUUACGCCAG		-2.11 ± 0.31
AAUUAGCAAUAUUACGCCCA	0.555 ± 0.24	-0.278 ± 0.36
AAUUAGCAAUAUUACGCGUA	-1.07 ± 0.12	-0.804 ± 0.14
AAUUAGCAAUAUUACGCGUU	-3.13 ± 0.32	-2.61 ± 0.28
AAUUAGCAAUAUUACGCUAU	-2.55 ± 0.26	-1.97 ± 0.31
AAUUAGCAAUAUUACGCUUA	-0.993 ± 0.12	0.247 ± 0.14
AAUUAGCAAUAUUACGGCCA	-0.657 ± 0.14	0.518 ± 0.17
AAUUAGCAAUAUUACGGCUU	-0.0634 ± 0.092	0.169 ± 0.13
AAUUAGCAAUAUUACGGGAG	-2.99 ± 0.19	-2.17 ± 0.16
AAUUAGCAAUAUUACGGGCC		-1.11 ± 0.49
AAUUAGCAAUAUUACGUAAC	-1.98 ± 0.16	-1.55 ± 0.29
AAUUAGCAAUAUUACGUCGC	-3.08 ± 0.27	-1.38 ± 0.21
AAUUAGCAAUAUUACGUCUA	-0.734 ± 0.087	-0.256 ± 0.093
AAUUAGCAAUAUUACGUCUC	-0.875 ± 0.12	-0.478 ± 0.16
AAUUAGCAAUAUUACGUGCA	-0.984 ± 0.096	-0.374 ± 0.12
AAUUAGCAAUAUUACGUUGG	-3.34 ± 0.17	-2.56 ± 0.16
ACAAAGCAAUAUUACGAAAU	-3.02 ± 0.13	-1.42 ± 0.12
ACAAAGCAAUAUUACGAAUG	-1.68 ± 0.057	-1.02 ± 0.085
